This passage reports binding result and Kd results from patent publication US20240150466A1 (DYNAMICURE BIOTECHNOLOGY, published 2024).

For assay [1], the target named is T1, mouse IGFBP7 displayed on cells (HEK293T or CHO-K1) (mouse, UniProt Q61581 26-281).
T1 construct: whole, on cells;domain: CD80 transmembrane domain; also called mIGFBP7; mIGFBP7-HEK cells; not shown: linker; CD80 transmembrane domain
T1 sequence (looked up): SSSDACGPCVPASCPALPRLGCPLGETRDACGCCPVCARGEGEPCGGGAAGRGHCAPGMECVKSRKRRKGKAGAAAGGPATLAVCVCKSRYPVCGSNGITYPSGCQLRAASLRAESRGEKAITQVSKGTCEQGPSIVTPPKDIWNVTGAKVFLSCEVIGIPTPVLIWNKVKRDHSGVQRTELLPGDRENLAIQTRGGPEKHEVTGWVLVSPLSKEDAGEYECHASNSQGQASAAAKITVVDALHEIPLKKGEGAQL
As to the kind of experiment: FACS on mIGFBP7-expressing CHO-K1 cells (FIG. 5).

Assay [2] has as its target T2, human IGFBP7 recombinant protein (human, UniProt Q16270 27-282, biotinylated with EZ-LINK NHS-PEG4 biotin in the BLI assays (sites not given)).
T2 construct: Soluble protein used for ELISA coating and, biotinylated, on streptavidin biosensors (Octet); also called hIGFBP7; biotinylated IGFBP7 protein
T2 sequence: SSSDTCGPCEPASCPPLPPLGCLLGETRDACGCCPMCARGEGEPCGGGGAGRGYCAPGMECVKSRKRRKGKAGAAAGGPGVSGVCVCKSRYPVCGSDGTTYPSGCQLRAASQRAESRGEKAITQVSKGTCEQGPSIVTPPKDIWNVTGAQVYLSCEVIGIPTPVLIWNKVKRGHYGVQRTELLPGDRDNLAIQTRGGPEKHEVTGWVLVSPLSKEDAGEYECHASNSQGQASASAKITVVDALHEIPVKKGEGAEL
As to the kind of experiment: BLI (Octet QKe), biotinylated IGFBP7 on streptavidin biosensors (FIG. 9). The protocol:
(§1) The binding affinity of anti-IGFBP7 nanobody Fc-fusion constructs (e.g., VHH-Fc-fusion constructs) were determined with bio-layer interferometry (BLI) using Octet QKe (Fortebio). Human, mouse, and cynomolgus IGFBP7 were biotinylated using EZ-LINK NHS-PEG4 biotin (Thermo Fisher Scientific). Streptavidin biosensors (ForteBio) were used to load biotinylated IGFBP7 protein (300 seconds in 5 μg/mL). Baseline was stabilized for 60 seconds in 1× kinetics buffer (ForteBio) before anti-IGFBP7 Fc-fucion proteins (serial dilution) were allowed to associate for 300 seconds with captured hIGFBP7 or mIGFBP7. Then the sensors were dissociated in 1× kinetics buffer for 600 seconds. Data analysis was performed on ForteBio Data Analysis HT 11.1 software.

For assay [3], the target named is T1, mouse IGFBP7 displayed on cells …. As to the kind of experiment: flow cytometry on mIGFBP7-HEK cells (FIG. 13). As for the experimental part: (§2) After washing with FACS buffer, the cells were incubated with Alexa Fluor 488 conjugated anti-mouse IgG antibody (Jackson ImmunoResearch) for 30 minutes in 4° C. After washing with FACS buffer twice, the samples were acquired in NovoCyte Flow Cytometer and analyzed by NovoExpress software.

The target in assay [4] is T3, human IGFBP7 recombinant protein (UniProt Q16270 27-282, biotinylated with EZ-LINK NHS-PEG4 biotin in the BLI assays (sites not given)).
T3 chain: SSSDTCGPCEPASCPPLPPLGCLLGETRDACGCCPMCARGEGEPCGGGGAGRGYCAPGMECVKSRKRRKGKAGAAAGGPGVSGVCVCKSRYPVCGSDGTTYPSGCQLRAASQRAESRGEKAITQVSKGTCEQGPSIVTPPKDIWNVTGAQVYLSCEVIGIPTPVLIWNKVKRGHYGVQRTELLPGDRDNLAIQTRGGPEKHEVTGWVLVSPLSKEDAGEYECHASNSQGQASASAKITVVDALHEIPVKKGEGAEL
As to the kind of experiment: BLI.

The target of assay [5] is T4, mouse IGFBP7 recombinant protein (mouse, UniProt Q61581 26-281, biotinylated with EZ-LINK NHS-PEG4 biotin in the BLI assays (sites not given)).
T4 chain: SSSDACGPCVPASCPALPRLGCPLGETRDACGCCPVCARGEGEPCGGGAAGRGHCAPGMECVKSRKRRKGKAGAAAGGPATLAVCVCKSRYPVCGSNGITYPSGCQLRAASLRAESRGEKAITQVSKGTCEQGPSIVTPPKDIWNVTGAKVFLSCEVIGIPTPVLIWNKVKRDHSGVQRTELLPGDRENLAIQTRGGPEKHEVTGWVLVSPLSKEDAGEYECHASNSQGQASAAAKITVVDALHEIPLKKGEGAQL
The assay can be described thus: BLI.

For assay [6], the target named is T4, mouse IGFBP7 recombinant protein. As to the kind of experiment: BLI.
In assay [7] the target is T3, human IGFBP7 recombinant protein. The assay can be described thus: BLI.
Assay [8] concerns the target T5, cynomolgus IGFBP7 recombinant protein (cynomolgus).
T5 chain: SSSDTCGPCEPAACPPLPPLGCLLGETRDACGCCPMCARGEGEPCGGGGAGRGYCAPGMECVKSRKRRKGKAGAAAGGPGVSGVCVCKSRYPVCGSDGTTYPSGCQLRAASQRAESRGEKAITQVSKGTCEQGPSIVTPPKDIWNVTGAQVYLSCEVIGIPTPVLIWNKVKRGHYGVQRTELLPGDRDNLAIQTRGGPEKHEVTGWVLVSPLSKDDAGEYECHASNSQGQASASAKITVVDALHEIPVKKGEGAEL
As to the kind of experiment: BLI.

Assay [9] concerns the target T6, human IGFBP7 displayed on HEK293T cells (human, UniProt Q16270 27-282).
T6 construct: domain: CD80 transmembrane domain; signal peptide stated as residues 1-26; also called hIGFBP7; hIGFBP7-HEK cells; not shown: linker; CD80 transmembrane domain
T6 sequence: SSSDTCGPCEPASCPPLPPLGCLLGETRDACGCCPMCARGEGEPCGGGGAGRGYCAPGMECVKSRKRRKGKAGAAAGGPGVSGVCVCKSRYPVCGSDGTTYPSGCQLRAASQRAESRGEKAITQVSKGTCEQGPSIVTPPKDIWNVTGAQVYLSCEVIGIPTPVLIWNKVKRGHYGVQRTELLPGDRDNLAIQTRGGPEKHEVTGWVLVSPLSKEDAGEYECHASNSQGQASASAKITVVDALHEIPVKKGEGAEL
The assay can be described thus: flow cytometry on hIGFBP7-HEK cells (FIG. 13). As for the experimental part:
as §2

Assay [10] addresses T3, human IGFBP7 recombinant protein. The assay can be described thus: BLI. For orientation: In BLI a coated tip is dipped into the sample, and binding shifts an interference pattern.
Assay [11] concerns the target T7, mouse IGFBP7 recombinant protein (mouse, UniProt Q61581 26-281, limits assumed, biotinylated with EZ-LINK NHS-PEG4 biotin in the BLI assays (sites not given)).
T7 construct: Soluble protein in ELISA and BLI; also called mIGFBP7
T7 sequence (looked up): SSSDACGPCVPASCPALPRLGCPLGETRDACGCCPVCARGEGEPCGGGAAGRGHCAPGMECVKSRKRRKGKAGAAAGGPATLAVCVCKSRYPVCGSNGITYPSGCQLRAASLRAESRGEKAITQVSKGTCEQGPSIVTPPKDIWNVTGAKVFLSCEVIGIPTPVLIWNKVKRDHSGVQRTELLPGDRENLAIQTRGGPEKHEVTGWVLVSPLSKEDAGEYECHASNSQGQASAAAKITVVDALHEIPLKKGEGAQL
As to the kind of experiment: BLI (Octet QKe), biotinylated IGFBP7 on streptavidin biosensors (FIG. 10). The protocol:
as §1

Assay [12] has as its target T4, mouse IGFBP7 recombinant protein. The assay can be described thus: BLI.

Read-outs that look alike come from different tables or passages of the source.

B1: anti-IGFBP7 nanobody Fc-fusion construct derived from D4 (Fc isotype not told) (Fc fusion)
chain: VQLQESGGGLVQTGGSLRLSCAASGRSFTFSSYAMGWFRHAPGKEREFLTAITWSGDYTYYTDSVKGRSTISRDNAKNTVYLQLNNLKPEDTAVYYCAAKFSQVSAFFATVSEYEYWGQGTQVTVSS
notes: may be the same as D4-mIgG2a; not shown: mouse Fc fragment, mIgG2a or mIgG1
Regarding B1, the binding result in assay [1] is on record as “binds”.

B2: A1-mIgG2a nanobody Fc-fusion (Fc fusion)
chain: VQLQESGGGLVQAGGSLRLSCAASGSLFAIDKWGWYRQVAGNERELVAWRYSPVSINYGDSVKGRFTVSGDSSRKRVYLQMNSLKPDDTAVYRCAAVISGAWYWGQGTQVTVSS
notes: VHH fused with mIgG2a Fc fragment, expressed in Expi293 cells, Protein G purified; also called monoclonal A1-mIgG2a; monospecific A1-mIgG2a; not shown: mouse IgG2a Fc fragment (mIgG2a Fc)
Broadly, the Kd is a measure of binding affinity in units of concentration. As to B2, the binding result in assay [2], in [3], in [9] and in assay [11] was “binds” in each case. Further, the dissociation constant (Kd) in [4] was 3.7 nM; in assay [5] it was 60.1 nM; in assay [6], 25.8 nM; in assay [7], 2.72 nM; in [8], 2.41 nM; in [10], 2.72 nM. Also, in assay [12], the dissociation constant Kd came to 25.8 nM.

B3: anti-IGFBP7 nanobody Fc-fusion construct derived from A1 (Fc isotype not told) (Fc fusion)
chain: VQLQESGGGLVQAGGSLRLSCAASGSLFAIDKWGWYRQVAGNERELVAWRYSPVSINYGDSVKGRFTVSGDSSRKRVYLQMNSLKPDDTAVYRCAAVISGAWYWGQGTQVTVSS
notes: may be the same as A1-mIgG2a or A1-mIgG1; not shown: mouse Fc fragment, mIgG2a or mIgG1
For the molecule B3, the binding result in assay [1] is reported as “binds”.

B4: bispecific anti-IGFBP7 nanobody Fc-fusion construct A1-mIgG2a-D4 (bispecific antibody, V domains shown)
V domain 1: VQLQESGGGLVQAGGSLRLSCAASGSLFAIDKWGWYRQVAGNERELVAWRYSPVSINYGDSVKGRFTVSGDSSRKRVYLQMNSLKPDDTAVYRCAAVISGAWYWGQGTQVTVSS
V domain 2: VQLQESGGGLVQTGGSLRLSCAASGRSFTFSSYAMGWFRHAPGKEREFLTAITWSGDYTYYTDSVKGRSTISRDNAKNTVYLQLNNLKPEDTAVYYCAAKFSQVSAFFATVSEYEYWGQGTQVTVSS
notes: also called A1-mIgG2a-D4-2; not shown: mouse IgG2a Fc fragment (mIgG2a Fc)
Consider B4, for which the binding result in assay [2], in [3], in [9] and in assay [11] was “binds” in each case. For the same molecule, the Kd in assay [6] was 1.74 nM; in assay [7], 0.193 nM; in [8], 0.195 nM; in [10], 0.193 nM; in assay [12], 1.74 nM.
